From article PMC11898703

Molecular target: FliW-T25 (Clostridioides difficile) (UniProt Q18CX4)
Assay: two-hybrid; bacterial two-hybrid (BACTH) in E. coli BTH101 read by β-galactosidase assay on cell lysates (10^10 CFU, bead beating in Z buffer, ONPG, ΔOD420 over 1 h)

## TcdR-T18 (natural protein)
  fold increase in β-galactosidase activity over the TcdR-T18 + T25 control: 2 fold
